Source: patent US20040175377A1, “Agent and method for reducing intraocular pressure” (priority 2000, published 2004)

B1: Hep II domain: recombinant 33 kilodalton Hep II domain of fibronectin containing type III repeats 12, 13 and 14 (SEQ ID NO:2) (protein, listed as Homo sapiens)
chain: IPAPTDLKFTQVTPTSLSAQWTPPNVQLTGYRVRVTPKEKTGPMKEINLAPDSSSVVVSGLMVATKYEVSVYALKDTLTSRPAQGVVTTLENVSPPRRARVTDATETTITISWRTKTETITGFQVDAVPANGQTPIQRTIKPDVRSYTITGLQPGTDYKIYLYTLNDNARSSPVVIDASTAIDAPSNLRFLATTPNSLLVSWQPPRARITGYIIKYEKPGSPPREVVPRPRPGVTEATITGLEPGTEYTIYVIALKNNQKSEPLIGRKKT

Key:
[1] = system: differentiated human TM (HTM) cell cultures; assay: Differentiated HTM cell cultures incubated with recombinant protein; extracellular matrix and cell contacts by immunofluorescence, phase microscopy and western blot; format: cell-based; conditions: for disruption of cell contacts or matrix assembly: pentapeptides administered separately to HTM cell cultures
Protocol: (§1) Differentiated human TM (HTM) cell cultures were incubated with a recombinant Hep II domain protein for eighteen hours. The effect on the extracellular matrix and cell contacts were observed using immunofluorescence microcopy, phase microscopy and western blot. Differentiated HTM cultures look like endothelial cells and form cell to cell junctions and closely resemble TM cells in vivo. Differentiated HTM cells also secrete matrix proteins such as fibronectin, type IV collagen and laminin. Non-differentiated cells lack these qualities and are less suitable for in vitro analysis methods. Cells were grown as described in Polansky J R, Weinreb R, Alvarado J A. Studies on human trabecular cells propagated in vitro. Vis Res 1981;21 :155-60 and Polansky J R, Weinreb R N, Baxter J D, Alvarado J. Human trabecular cells. I. Establishment in tissue culture and growth characteristics. Invest Ophthalmol Vis Sci 1979;18:1043-9, both incorporated by reference in their entirety.
After incubation, the turnover of fibronectin fibrils, a good indicator of matrix formation, was studied. […] The Hep II protein was a GST protein. The GST portion was cleaved with thrombin as described by Bultmann, H., et al., Fibronectin Fibrilogenesis Involves the Heparin II Binding Domains of Fibronectin, J. Biol. Chem. 273:2601-2609 (1998).
To identify the active region of the Hep II domain, smaller fragments including either the Type III repeat 12, the Type III repeat 14, or the Type III repeats 13 and 14 were produced as recombinant GST proteins, as above.

[2] = system: human trabecular meshwork organ culture (eye); assay: Human eye organ culture perfusion, paired control and test eyes, IOP
Protocol: While this effect on matrix formation was relatively slow, the Hep II domain acts quickly in intact eyes to increase outflow facility. In human eye culture studies using pairs of control and test eyes, as described by Johnson, D H and Tschumper, R C. (1987) Human Trabecular Meshwork Organ Culture. IVOS 28:945-953, incorporated by reference, a baseline IOP was determined, pumps were turned off and the Hep II domain was injected at 13.8 μM into the anterior chamber of one eye. The pumps were kept off for four hours to allow the Hep II domain to mix with the contents of the anterior chamber. After four hours, the treated eyes were perfused with buffer containing the Hep II domain at 13.8 μM for twenty-four hours. Untreated eyes were perfused with buffer. […] After twenty-four hours, the pumps were turned off and the perfusate in both eyes was replaced with fresh buffer without the protein.

[3] = system: Schlemm's canal endothelium and extracellular matrix of the eye; assay: Light and electron microscopy of fixed treated and untreated organ-cultured eyes; set-up: species or system human; conditions: fixed eyes after perfusion
Excerpt: The treated and untreated eyes were then fixed and prepared for both light and electron microscopy. […] Part of the inner side of the cannel was disrupted and small discontinuous cellular processes replaced a continuous cell layer found in a normal eye. […] These changes can account for the increased outflow in the presence of the Hep II domain since they would have created additional spaces or openings for fluid flow.

vinculin = assay: Tyrosine phosphorylation of vinculin after treatment; format: cell-based, human; conditions: after treatment of the eye with the Hep II domain
Protocol: as §1
Further, a number of morphological changes also indicate disrupted cell contacts. […] Vinculin is a major structural protein that maintain cell-cell and cell-adhesion contracts. Changes in its phosphorylation state indicate that the treatment has biochemically affected the molecules that maintain cell-cell and cell-adhesion contracts. […]

| Molecule | disruption of cell contacts or matrix assembly [1] | decrease in IOP ([2]; 13.8 μM injected into the anterior chamber, pumps off four hours, then perfusion at 13.8 μM for twenty-four hours, versus baseline) [%] | pressure in the treated eye after replacement of perfusate with buffer without the protein ([2]; after twenty-four hours perfusion, absence of the Hep II domain) | treated organ-cultured eyes with lower IOP after treatment ([2]; plurality of assays, number of treated eyes) | electron microscopy, endothelium in Schlemm's canal [3] | electron microscopy, extracellular matrix in the juxtacanalicular region [3] | light microscopy, treated versus untreated eyes [3] | tyrosine phosphorylation of vinculin (vinculin) | level of fibronectin matrixes (turnover of fibronectin fibrils) ([1]; HTM cell cultures, 4.6 μM, eighteen hours incubation) | morphological changes indicating disrupted cell contacts ([1]; compared to untreated cultures) | morphological changes at higher peptide concentrations ([1]; higher peptide concentrations) |
| --- | --- | --- | --- | --- | --- | --- | --- | --- | --- | --- | --- |
| IDAPS (listed as Homo sapiens) | neither disrupted cell contacts or matrix assembly | – | – | – | – | – | – | – | – | – | – |
| PRARI (listed as Homo sapiens) | neither disrupted cell contacts or matrix assembly | – | – | – | – | – | – | – | – | – | – |
| B1 | – | 32 | returned to the baseline level | six of seven | altered | altered and amorphous material appeared in the cribiform meshwork | not distinguishable | significant increase | dramatic decrease | increase in the number of retraction fibers | retraction and rounding up of many cells |
